Measured values from patent US20230381328A1, “COMPOUND FOR THE PREVENTION OR TREATMENT OF MYASTHENIA GRAVIS” (ABLEVIA BIOTECH GMBH, priority 2020, published 2023).
Where no end group is shown, it is not given here.

Columns and labels:
[1] = molecular target: monoclonal antibody mAB 198; assay: peptide microarray, fluorescence, linear peptide
[2] = molecular target: monoclonal antibody mAB 198; assay: peptide microarray, fluorescence, cyclic peptide

relative signal [%] [1] [%] | relative signal [%] [2] [%] | Binder
6.9 |  | RGNPADY [RGNPADY, linear mimotope]
6.8 |  | VDCNLKFNP
 | 61.3 | RLRVNPADY (also: cyclic peptide, ring type and places not given here)
6.5 |  | SLRFNPADY
 | 37.5 | RFNPADY (also: cyclic peptide, ring type and places not given here) [RFNPADY, cyclic mimotope]
6 |  | ALRWNPADY
 | 42.3 | RLNPADY (also: cyclic peptide, ring type and places not given here) [RLNPADY, cyclic mimotope]
6.5 |  | NPADYGN [NPADYGN, linear mimotope]
 | 37.3 | RLRLNPADY (also: cyclic peptide, ring type and places not given here)
6.1 |  | LRPNPADYG
6.5 |  | RLRYNPADY
6.8 |  | RIRWNPADY
6.4 |  | QWVDCNLKFNP
6.8 |  | DVRLRWNPSDY
6.7 |  | HRLRWNPAD
 | 32.7 | RLRGNPADY (also: cyclic peptide, ring type and places not given here)
 | 45.1 | LRVNPADYG (also: cyclic peptide, mode of cyclisation not given here)
 | 100 | VRLRWNPADYP (also: cyclic peptide, mode of cyclisation not given here)
6.1 |  | VDCNLKYNP
 | 43.2 | WIDVRLRGNPA (also: cyclic peptide, mode of cyclisation not given here)
31.6 |  | LRVNPADYG
6.7 |  | SLRVNPADY
6.7 |  | CNLKYNP [CNLKYNP, linear mimotope]
6.5 |  | LRWNPADYPGI
6.6 |  | HSLRWNPAD
